Among the data in publication doi:10.1101/2024.09.19.613822 are stoichiometry N values, retold here.

The target of the assay is His-tagged proaerolysin (Aeromonas hydrophila) (UniProt P09167). In words: SEC. (Size exclusion chromatography separates by hydrodynamic size, large species first.)

On to “His-tagged proaerolysin (from UniProt P09167 24-445) (natural protein)”, for which the stoichiometry N (in general, the number of molecules, sites or subunits per partner or assembly) was determined as 2.
